Test [1] addresses human corticotropin-releasing factor 2a (CRF2a receptor) (human), Q13324. Nature of the test: cell-based or functional assay.
The next test has as its target T1, CRF1R receptor (UniProt P34998 24-415, limits assumed).
T1 sequence (looked up): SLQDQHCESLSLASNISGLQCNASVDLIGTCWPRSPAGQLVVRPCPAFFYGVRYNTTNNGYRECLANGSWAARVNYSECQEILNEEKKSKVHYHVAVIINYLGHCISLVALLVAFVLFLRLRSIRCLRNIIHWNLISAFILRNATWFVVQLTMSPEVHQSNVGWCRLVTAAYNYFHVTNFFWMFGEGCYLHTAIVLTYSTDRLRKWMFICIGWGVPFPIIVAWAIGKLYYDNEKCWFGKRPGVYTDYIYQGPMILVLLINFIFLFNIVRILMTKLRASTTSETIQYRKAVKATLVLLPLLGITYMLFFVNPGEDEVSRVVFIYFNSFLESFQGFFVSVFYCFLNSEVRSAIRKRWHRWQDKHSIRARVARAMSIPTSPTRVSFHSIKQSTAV
Briefly: cell-based or functional assay.

*1 amine or outer side, *2 acyl side, *3 side chain or, on linkers, in order; H or OH if unused. Where no end group is shown, it is not given here. Side-chain parts run from the residue outwards. [ ]: non-standard residue; d: D form. The star is where a group is joined. C18 diacid = O=C(O)CCCCCCCCCCCCCCCCC(=O)*; γGlu = O=C(O)[C@H](CCC(=O)[*:2])N[*:1]; NMeI = CC[C@H](C)[C@H](NC)C(=O)O; Pentanoyl = CCCCC(=O)*; AEEA = NCCOCCOCC(=O)O; Aib = CC(C)(N)C(=O)O

human corticotropin-releasing factor 2a (CRF2a receptor) (human), Q13324, sequence (Q13324 20-411): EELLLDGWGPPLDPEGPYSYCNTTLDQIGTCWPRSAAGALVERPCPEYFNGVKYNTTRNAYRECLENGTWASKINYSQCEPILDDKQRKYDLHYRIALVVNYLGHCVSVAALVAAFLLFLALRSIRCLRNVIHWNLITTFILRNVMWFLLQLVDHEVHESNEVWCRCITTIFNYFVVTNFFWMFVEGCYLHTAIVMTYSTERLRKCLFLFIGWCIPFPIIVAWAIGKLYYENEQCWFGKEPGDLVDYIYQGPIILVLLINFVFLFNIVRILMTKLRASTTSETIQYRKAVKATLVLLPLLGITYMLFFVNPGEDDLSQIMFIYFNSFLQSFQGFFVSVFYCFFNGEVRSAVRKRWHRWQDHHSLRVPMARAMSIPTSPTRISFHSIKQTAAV

B1: SEQ ID NO 202 (peptide)
peptide: Pentanoyl-VLSLD[dV]PIKLK([AEEA-AEEA-γGlu-C18 diacid])KILLEQEKQK[Aib]QREQAETN[Aib]QILAQV-NH2
SMILES: CCCCC(=O)N[C@H](C(=O)N[C@@H](CC(C)C)C(=O)N[C@@H](CO)C(=O)N[C@@H](CC(C)C)C(=O)N[C@@H](CC(=O)O)C(=O)N[C@@H](C(=O)N1CCC[C@H]1C(=O)N[C@H](C(=O)N[C@@H](CCCCN)C(=O)N[C@@H](CC(C)C)C(=O)N[C@@H](CCCCNC(=O)COCCOCCNC(=O)COCCOCCNC(=O)CC[C@H](NC(=O)CCCCCCCCCCCCCCCCC(=O)O)C(=O)O)C(=O)N[C@@H](CCCCN)C(=O)N[C@H](C(=O)N[C@@H](CC(C)C)C(=O)N[C@@H](CC(C)C)C(=O)N[C@@H](CCC(=O)O)C(=O)N[C@@H](CCC(N)=O)C(=O)N[C@@H](CCC(=O)O)C(=O)N[C@@H](CCCCN)C(=O)N[C@@H](CCC(N)=O)C(=O)N[C@@H](CCCCN)C(=O)NC(C)(C)C(=O)N[C@@H](CCC(N)=O)C(=O)N[C@@H](CCCNC(=N)N)C(=O)N[C@@H](CCC(=O)O)C(=O)N[C@@H](CCC(N)=O)C(=O)N[C@@H](C)C(=O)N[C@@H](CCC(=O)O)C(=O)N[C@H](C(=O)N[C@@H](CC(N)=O)C(=O)NC(C)(C)C(=O)N[C@@H](CCC(N)=O)C(=O)N[C@H](C(=O)N[C@@H](CC(C)C)C(=O)N[C@@H](C)C(=O)N[C@@H](CCC(N)=O)C(=O)N[C@H](C(N)=O)C(C)C)[C@@H](C)CC)[C@@H](C)O)[C@@H](C)CC)[C@@H](C)CC)C(C)C)C(C)C
In test [1], B1 gave an EC50 [nM] (cAMP) of 1.73 nM. Further, the “Emax (% I)” value in the test with CRF1R receptor worked out at 8%.

B2: SEQ ID NO 201 (peptide)
peptide: Pentanoyl-VLSLD[dV]PIKLK([AEEA-AEEA-γGlu-C18 diacid])KILLEQEKQKKQREQAETN[Aib]QILAQV-NH2
SMILES: CCCCC(=O)N[C@H](C(=O)N[C@@H](CC(C)C)C(=O)N[C@@H](CO)C(=O)N[C@@H](CC(C)C)C(=O)N[C@@H](CC(=O)O)C(=O)N[C@@H](C(=O)N1CCC[C@H]1C(=O)N[C@H](C(=O)N[C@@H](CCCCN)C(=O)N[C@@H](CC(C)C)C(=O)N[C@@H](CCCCNC(=O)COCCOCCNC(=O)COCCOCCNC(=O)CC[C@H](NC(=O)CCCCCCCCCCCCCCCCC(=O)O)C(=O)O)C(=O)N[C@@H](CCCCN)C(=O)N[C@H](C(=O)N[C@@H](CC(C)C)C(=O)N[C@@H](CC(C)C)C(=O)N[C@@H](CCC(=O)O)C(=O)N[C@@H](CCC(N)=O)C(=O)N[C@@H](CCC(=O)O)C(=O)N[C@@H](CCCCN)C(=O)N[C@@H](CCC(N)=O)C(=O)N[C@@H](CCCCN)C(=O)N[C@@H](CCCCN)C(=O)N[C@@H](CCC(N)=O)C(=O)N[C@@H](CCCNC(=N)N)C(=O)N[C@@H](CCC(=O)O)C(=O)N[C@@H](CCC(N)=O)C(=O)N[C@@H](C)C(=O)N[C@@H](CCC(=O)O)C(=O)N[C@H](C(=O)N[C@@H](CC(N)=O)C(=O)NC(C)(C)C(=O)N[C@@H](CCC(N)=O)C(=O)N[C@H](C(=O)N[C@@H](CC(C)C)C(=O)N[C@@H](C)C(=O)N[C@@H](CCC(N)=O)C(=O)N[C@H](C(N)=O)C(C)C)[C@@H](C)CC)[C@@H](C)O)[C@@H](C)CC)[C@@H](C)CC)C(C)C)C(C)C
B2 gave an EC50 [nM] (cAMP) in test [1] of 1.37 nM. Besides, in the test with CRF1R receptor, the “Emax (% I)” value was 5%.

B3: SEQ ID NO 200 (peptide)
peptide: [NMeI]VLSLD[dV]PIKLK([AEEA-AEEA-γGlu-C18 diacid])KILLEQEKQK[Aib]QREQAETN[Aib]QILAQV-NH2
modifications: N-terminus assumed
SMILES: CC[C@H](C)[C@H](NC)C(=O)N[C@H](C(=O)N[C@@H](CC(C)C)C(=O)N[C@@H](CO)C(=O)N[C@@H](CC(C)C)C(=O)N[C@@H](CC(=O)O)C(=O)N[C@@H](C(=O)N1CCC[C@H]1C(=O)N[C@H](C(=O)N[C@@H](CCCCN)C(=O)N[C@@H](CC(C)C)C(=O)N[C@@H](CCCCNC(=O)COCCOCCNC(=O)COCCOCCNC(=O)CC[C@H](NC(=O)CCCCCCCCCCCCCCCCC(=O)O)C(=O)O)C(=O)N[C@@H](CCCCN)C(=O)N[C@H](C(=O)N[C@@H](CC(C)C)C(=O)N[C@@H](CC(C)C)C(=O)N[C@@H](CCC(=O)O)C(=O)N[C@@H](CCC(N)=O)C(=O)N[C@@H](CCC(=O)O)C(=O)N[C@@H](CCCCN)C(=O)N[C@@H](CCC(N)=O)C(=O)N[C@@H](CCCCN)C(=O)NC(C)(C)C(=O)N[C@@H](CCC(N)=O)C(=O)N[C@@H](CCCNC(=N)N)C(=O)N[C@@H](CCC(=O)O)C(=O)N[C@@H](CCC(N)=O)C(=O)N[C@@H](C)C(=O)N[C@@H](CCC(=O)O)C(=O)N[C@H](C(=O)N[C@@H](CC(N)=O)C(=O)NC(C)(C)C(=O)N[C@@H](CCC(N)=O)C(=O)N[C@H](C(=O)N[C@@H](CC(C)C)C(=O)N[C@@H](C)C(=O)N[C@@H](CCC(N)=O)C(=O)N[C@H](C(N)=O)C(C)C)[C@@H](C)CC)[C@@H](C)O)[C@@H](C)CC)[C@@H](C)CC)C(C)C)C(C)C
In the case of B3, in test [1], the EC50 [nM] (cAMP) came to 0.71 nM. Further, the “Emax (% I)” value with CRF1R receptor stood at 2%.

B4: SEQ ID NO 203 (peptide)
peptide: Ac-IVLSLD[dV]PIKLK([AEEA-γGlu-C18 diacid])KILLEQEKQKKQREQAETN[Aib]QILAQV-NH2
SMILES: CC[C@H](C)[C@H](NC(C)=O)C(=O)N[C@H](C(=O)N[C@@H](CC(C)C)C(=O)N[C@@H](CO)C(=O)N[C@@H](CC(C)C)C(=O)N[C@@H](CC(=O)O)C(=O)N[C@@H](C(=O)N1CCC[C@H]1C(=O)N[C@H](C(=O)N[C@@H](CCCCN)C(=O)N[C@@H](CC(C)C)C(=O)N[C@@H](CCCCNC(=O)COCCOCCNC(=O)CC[C@H](NC(=O)CCCCCCCCCCCCCCCCC(=O)O)C(=O)O)C(=O)N[C@@H](CCCCN)C(=O)N[C@H](C(=O)N[C@@H](CC(C)C)C(=O)N[C@@H](CC(C)C)C(=O)N[C@@H](CCC(=O)O)C(=O)N[C@@H](CCC(N)=O)C(=O)N[C@@H](CCC(=O)O)C(=O)N[C@@H](CCCCN)C(=O)N[C@@H](CCC(N)=O)C(=O)N[C@@H](CCCCN)C(=O)N[C@@H](CCCCN)C(=O)N[C@@H](CCC(N)=O)C(=O)N[C@@H](CCCNC(=N)N)C(=O)N[C@@H](CCC(=O)O)C(=O)N[C@@H](CCC(N)=O)C(=O)N[C@@H](C)C(=O)N[C@@H](CCC(=O)O)C(=O)N[C@H](C(=O)N[C@@H](CC(N)=O)C(=O)NC(C)(C)C(=O)N[C@@H](CCC(N)=O)C(=O)N[C@H](C(=O)N[C@@H](CC(C)C)C(=O)N[C@@H](C)C(=O)N[C@@H](CCC(N)=O)C(=O)N[C@H](C(N)=O)C(C)C)[C@@H](C)CC)[C@@H](C)O)[C@@H](C)CC)[C@@H](C)CC)C(C)C)C(C)C
B4: the EC50 [nM] (cAMP) in test [1] is 0.43 nM. Also, the “Emax (% I)” value in the test with CRF1R receptor was 3%.

The values are drawn from US20260001928A1 (CORTERIA PHARMACEUTICALS, priority 2022, published 2026).
